Test results published in patent US20140127212A1 (AstraZeneca / MedImmune, published 2014).

Columns and labels:
[1] = target: T1, cynomolgus IgE (recombinant chimaeric D12 variable region and cynomolgus IgE constant region) (cynomolgus monkey (constant region); …); assay: cell-based or functional assay
[2] = target: T1, cynomolgus IgE (recombinant chimaeric …); assay: SPR BIAcore; IgG captured on protein G', IgE analyte, bivalent analyte fit; geomean
[3] = target: MOv18 IgE; assay: cell-based or functional assay
[4] = target: T1, cynomolgus IgE (recombinant chimaeric …); assay: HTRF competition; scFv titrated vs Eu-cryptate cynomolgus IgE binding to human FcεRI-Fc; geomean
[5] = target: human IgE (preparation not stated, or 'Calbiochem or U266-derived') (human, UniProt P01854-1 1-428); assay: cell-based or functional assay
Sequence of human IgE (preparation not stated, or 'Calbiochem or U266-derived') (P01854 other isoform, or with tags, fused parts or gaps): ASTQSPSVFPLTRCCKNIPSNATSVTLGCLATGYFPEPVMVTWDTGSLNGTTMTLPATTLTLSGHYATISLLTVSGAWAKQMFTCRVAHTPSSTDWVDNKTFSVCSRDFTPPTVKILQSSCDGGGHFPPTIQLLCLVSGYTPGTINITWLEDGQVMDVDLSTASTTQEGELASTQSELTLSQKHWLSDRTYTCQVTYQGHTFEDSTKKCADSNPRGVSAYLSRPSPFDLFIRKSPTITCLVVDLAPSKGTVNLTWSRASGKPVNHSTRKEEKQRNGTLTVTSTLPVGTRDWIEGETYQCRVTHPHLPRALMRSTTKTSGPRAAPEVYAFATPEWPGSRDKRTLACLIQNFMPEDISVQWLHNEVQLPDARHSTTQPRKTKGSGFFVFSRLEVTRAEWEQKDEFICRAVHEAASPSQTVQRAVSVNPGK

[6] = target: T2, cynomolgus IgE Cε3-Cε4 domain, C-terminally tagged with FLAG His10 (cynomolgus monkey); assay: DELFIA epitope competition; competitor vs biotinylated IgE on immobilised IgG
T2 construct: also called Cynomolgus Ce3-4 FLAG His10
T2 chain: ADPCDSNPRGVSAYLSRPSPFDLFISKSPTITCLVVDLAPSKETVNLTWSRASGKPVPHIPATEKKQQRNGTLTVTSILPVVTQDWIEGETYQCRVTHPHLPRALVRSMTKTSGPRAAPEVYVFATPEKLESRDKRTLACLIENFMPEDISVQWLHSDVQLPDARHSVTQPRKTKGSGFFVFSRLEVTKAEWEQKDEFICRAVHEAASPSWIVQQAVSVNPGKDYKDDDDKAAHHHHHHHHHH

T1 sequence (heavy, as listed by the source limits assumed, chain 1 of 2): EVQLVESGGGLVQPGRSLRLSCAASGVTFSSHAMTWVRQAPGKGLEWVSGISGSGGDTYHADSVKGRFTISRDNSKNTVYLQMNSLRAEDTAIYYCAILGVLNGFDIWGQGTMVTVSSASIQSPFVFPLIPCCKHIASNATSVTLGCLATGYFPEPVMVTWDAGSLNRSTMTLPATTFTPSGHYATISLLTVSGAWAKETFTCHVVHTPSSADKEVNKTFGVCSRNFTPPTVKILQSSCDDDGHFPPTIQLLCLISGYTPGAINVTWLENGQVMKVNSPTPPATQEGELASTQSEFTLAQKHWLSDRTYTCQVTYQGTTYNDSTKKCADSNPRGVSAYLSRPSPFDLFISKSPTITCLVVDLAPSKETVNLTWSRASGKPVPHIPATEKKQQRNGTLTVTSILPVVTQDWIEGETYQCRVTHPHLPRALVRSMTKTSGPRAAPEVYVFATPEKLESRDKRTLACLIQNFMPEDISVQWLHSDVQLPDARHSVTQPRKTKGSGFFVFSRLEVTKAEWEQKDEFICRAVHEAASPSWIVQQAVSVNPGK
T1 sequence (light, as listed by the source limits assumed, chain 2 of 2): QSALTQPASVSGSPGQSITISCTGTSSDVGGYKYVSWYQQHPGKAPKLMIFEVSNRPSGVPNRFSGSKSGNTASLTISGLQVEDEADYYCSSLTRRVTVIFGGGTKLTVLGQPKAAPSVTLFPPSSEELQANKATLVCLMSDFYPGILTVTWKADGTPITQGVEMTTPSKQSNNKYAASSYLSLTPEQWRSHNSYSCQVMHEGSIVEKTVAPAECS

B1: Antibody 4 IgG (antibody, V domains shown)
VH: QVQLVQSGAEVKKPGATVKLSCKVYGYIFTDYNIYWVRQAPGKGLEWMGLIDPDNGETFYAEKFQGRATMTADTSSDRAYMELTSLTFEDTATYYCATVMGKWIKGGYDYWGRGTLVTVSS
VL: QSVLTQPPSVSGAPGQRVTISCTGSSSNIGAGYDVHWYQQLPGTAPKLLIYDNFNRPSGVPDRFSGSKSGTSASLAIIGLQTEDEADYYCQSYDSRGGHSPFGTGTKLTVL
notes: Whole human IgG (section 1.4, IgG1)
[1]
  RBL-ER51 calcium signalling IC50 (nM), Cynomolgus IgE, geomean: 0.151 nM
[2]
  Kd: 8 nM

B2: Antibody 5 IgG (antibody, V domains shown)
VH: QVQLVQSGAEVKKPGATVKLSCKVYGYIFTDYNIYWVRQAPGKGLEWMGLIDPDNGETFYAEKFQGRATMTADTSSDRAYMELTSLTFEDTATYYCATVMGKWIKGGYDYWGRGTLVTVSS
VL: QSVLTQPPSVSGAPGQRVTISCTGSSSNIGAGYDVHWYQQLPGTAPKLLIYDNFNRPSGVPDRFSGSKSGTSASLAIIGLQTEDEADYYCQSYDSTKHTSPFGTGTKLTVL
notes: as for B1
[1]
  RBL-ER51 calcium signalling IC50 (nM), Cynomolgus IgE, geomean: 0.181 nM
[2]
  Kd: 7.9 nM

B3: Antibody 6 IgG (antibody, V domains shown)
VH: QVQLVQSGAEVKKPGATVKLSCKVYGYIFTDYNIYWVRQAPGKGLEWMGLIDPDNGETFYAEKFQGRATMTADTSSDRAYMELTSLTFEDTATYYCATVMGKWIKGGYDYWGRGTLVTVSS
VL: QSVLTQPPSVSGAPGQRVTISCTGSSSNIGAGYDVHWYQQLPGTAPKLLIYDNFNRPSGVPDRFSGSKSGTSASLAIIGLQTEDEADYYCQSYDSTMRHGPFGTGTKLTVL
notes: as for B1
[1]
  RBL-ER51 calcium signalling IC50 (nM), Cynomolgus IgE, geomean: 0.168 nM
[2]
  Kd: 3.7 nM

B4: Antibody 8 IgG (antibody, V domains shown)
VH: QVQLVQSGAEVKKPGATVKLSCKVYGYIFTDYNIYWVRQAPGKGLEWMGLIDPDNGETFYAEKFQGRATMTADTSSDRAYMELTSLTFEDTATYYCATVLGRWIKGGYDYWGRGTLVTVSS
VL: QSVLTQPPSVSGAPGQRVTISCTGSSSNIGAGYDVHWYQQLPGTAPKLLIYDNFNRPSGVPDRFSGSKSGTSASLAIIGLQTEDEADYYCQSYDSPTHTSPFGTGTKLTVL
notes: as for B1
[1]
  RBL-ER51 calcium signalling IC50 (nM), Cynomolgus IgE, geomean: 0.188 nM
[2]
  Kd: 6.3 nM

B5: Antibody 11 IgG (antibody, V domains shown)
VH: QVQLVQSGAEVKKPGATVKLSCKVYGYIFTDYNIYWVRQAPGKGLEWMGLIDPDNGETFYAEKFQGRATMTADTSSDRAYMELTSLTFEDTATYYCATVMGKWIKGGYDYWGRGTLVTVSS
VL: QSVLTQPPSVSGAPGQRVTISCTGSSSNIGAGYDVHWYQQLPGTAPKLLIYDNFNRPSGVPDRFSGSKSGTSASLAIIGLQTEDEADYYCQSYDSPTLTSPFGTGTKLTVL
notes: as for B1
[1]
  RBL-ER51 calcium signalling IC50 (nM), Cynomolgus IgE, geomean: 0.153 nM
[3]
  IC50 (read off the curve), IgE/FcεRI-mediated cytotoxicity: ~0.1 nM
[2]
  Kd: 9.3 nM

B6: Antibody 12 IgG (antibody, V domains shown)
VH: QVQLVQSGAEVKKPGATVKLSCKVYGYIFTDYNIYWVRQAPGKGLEWMGLIDPDNGETFYAEKFQGRATMTADTSSDRAYMELTSLTFEDTATYYCATVMGKWIKGGYDYWGRGTLVTVSS
VL: QSVLTQPPSVSGAPGQRVTISCTGSSSNIGAGYDVHWYQQLPGTAPKLLIYDNFNRPSGVPDRFSGSKSGTSASLAIIGLQTEDEADYYCQSYDSSIDHSPFGTGTKLTVL
notes: as for B1
[1]
  RBL-ER51 calcium signalling IC50 (nM), Cynomolgus IgE, geomean: 0.334 nM
[2]
  Kd: 230 nM

B7: Antibody 13 IgG (antibody, V domains shown)
VH: QVQLVQSGAEVKKPGATVKLSCKVYGYIFTDYNIYWVRQAPGKGLEWMGLIDPDNGETFYAEKFQGRATMTADTSSDRAYMELTSLTFEDTATYYCATVMGKWIKGGYDYWGRGTLVTVSS
VL: QSVLTQPPSVSGAPGQRVTISCTGSSSNIGAGYDVHWYQQLPGTAPKLLIYDNFNRPSGVPDRFSGSKSGTSASLAIIGLQTEDEADYYCQSYDSNILYSPFGTGTKLTVL
notes: as for B1
[1]
  RBL-ER51 calcium signalling IC50 (nM), Cynomolgus IgE, geomean: 0.244 nM
[2]
  Kd: 9.9 nM

B8: Antibody 16 IgG (antibody, V domains shown)
VH: QVQLVQSGAEVKKPGATVKLSCKVYGYIFTDYNIYWVRQAPGKGLEWMGLIDPDNGETFYAEKFQGRATMTADTSSDRAYMELTSLTFEDTATYYCATVSLKSAKGGYDYWGRGTLVTVSS
VL: QSVLTQPPSVSGAPGQRVTISCTGSSSNIGAGYDVHWYQQLPGTAPKLLIYDNFNRPSGVPDRFSGSKSGTSASLAIIGLQTEDEADYYCQSYDSRHHHAPFGTGTKLTVL
notes: as for B1
[1]
  RBL-ER51 calcium signalling IC50 (nM), Cynomolgus IgE, geomean: 4.38 nM
[2]
  Kd: 62 nM

B9: Antibody 19 IgG (antibody, V domains shown)
VH: QVQLVQSGAEVKKPGATVKLSCKVYGYIFTDYNIYWVRQAPGKGLEWMGLIDPDNGETFYAEKFQGRATMTADTSSDRAYMELTSLTFEDTATYYCATVMGKWIKGGYDYWGRGTLVTVSS
VL: QSVLTQPPSVSGAPGQRVTISCTGSSSNIGAGYDVHWYQQLPGTAPKLLIYDNFNRPSGVPDRFSGSKSGTSASLAIIGLQTEDEADYYCQSYDSTLSHSPFGTGTKLTVL
notes: as for B1
[1]
  RBL-ER51 calcium signalling IC50 (nM), Cynomolgus IgE, geomean: 0.111 nM
[2]
  Kd: 7.9 nM

B10: Antibody 20 IgG (antibody, V domains shown)
VH: QVQLVQSGAEVKKPGATVKLSCKVYGYIFTDYNIYWVRQAPGKGLEWMGLIDPDNGETFYAEKFQGRATMTADTSSDRAYMELTSLTFEDTATYYCATVMGKWIKGGYDYWGRGTLVTVSS
VL: QSVLTQPPSVSGAPGQRVTISCTGSSSNIGAGYDVHWYQQLPGTAPKLLIYDNFNRPSGVPDRFSGSKSGTSASLAIIGLQTEDEADYYCQSYDSSTSSSPFGTGTKLTVL
notes: as for B1
[1]
  RBL-ER51 calcium signalling IC50 (nM), Cynomolgus IgE, geomean: 0.31 nM
[2]
  Kd: 10.5 nM

B11: Antibody 23 IgG (antibody, V domains shown)
VH: QVQLVQSGAEVKKPGATVKLSCKVYGYIFTDYNIYWVRQAPGKGLEWMGLIDPDNGETFYAEKFQGRATMTADTSSDRAYMELTSLTFEDTATYYCATVMGKWIKGGYDYWGRGTLVTVSS
VL: QSVLTQPPSVSGAPGQRVTISCTGSSSNIGAGYDVHWYQQLPGTAPKLLIYDNFNRPSGVPDRFSGSKSGTSASLAIIGLQTEDEADYYCQSYDSHHLYSSFGTGTKLTVL
notes: as for B1
[1]
  RBL-ER51 calcium signalling IC50 (nM), Cynomolgus IgE, geomean: 0.523 nM
[2]
  Kd: 4.3 nM

B12: Antibody 25 scFv (scFv, V domains shown, not shown: small tags and cut ends)
VH: QVQLVQSGAEVKKPGATVKLSCKVYGYIFTDYNIYWVRQAPGKGLEWMGLIDPDNGETFYAEKFQGRATMTADTSSDRAYMELTSLTFEDTATYYCATVTLKSAKGGYDYWGRGTLVTVSS
VL: QSVLTQPPSVSGAPGQRVTISCTGSSSNIGAGYDVHWYQQLPGTAPKLLIYDNFNRPSGVPDRFSGSKSGTSASLAIIGLQTEDEADYYCQSYDSNHKTSPFGTGTKLTVL
notes: Purified scFv
[4]
  IC50: 86 nM

B13: Antibody 26 scFv (scFv, V domains shown, not shown: small tags and cut ends)
VH: QVQLVQSGAEVKKPGATVKLSCKVYGYIFTDYNIYWVRQAPGKGLEWMGLIDPDNGETFYAEKFQGRATMTADTSSDRAYMELTSLTFEDTATYYCATVSLKEAKGGYDYWGRGTLVTVSS
VL: QSVLTQPPSVSGAPGQRVTISCTGSSSNIGAGYDVHWYQQLPGTAPKLLIYDNFNRPSGVPDRFSGSKSGTSASLAIIGLQTEDEADYYCQSYDSASRHAPFGTGTKLTVL
notes: Purified scFv
[4]
  IC50: 121 nM

B14: Antibody 27 scFv (scFv, V domains shown, not shown: small tags and cut ends)
VH: QVQLVQSGAEVKKPGATVKLSCKVYGYIFTDYNIYWVRQAPGKGLEWMGLIDPDNGETFYAEKFQGRATMTADTSSDRAYMELTSLTFEDTATYYCATVSLKEAKGGYDYWGRGTLVTVSS
VL: QSVLTQPPSVSGAPGQRVTISCTGSSSNIGAGYDVHWYQQLPGTAPKLLIYDNFNRPSGVPDRFSGSKSGTSASLAIIGLQTEDEADYYCQSYDSPTQTSPFGTGTKLTVL
notes: Purified scFv
[4]
  IC50: 117 nM

B15: Antibody 28 IgG (antibody, V domains shown)
VH: QVQLVQSGAEVKKPGATVKLSCKVYGYIFTDYNIYWVRQAPGKGLEWMGLIDPDNGETFYAEKFQGRATMTADTSSDRAYMELTSLTFEDTATYYCATVMGKWIKGGYDYWGRGTLVTVSS
VL: QSVLTQPPSVSGAPGQRVTISCTGSSSNIGAGYDVHWYQQLPGTAPKLLIYDNFNRPSGVPDRFSGSKSGTSASLAIIGLQTEDEADYYCQSYDSSSLHSPFGTGTKLTVL
notes: as for B1
[1]
  RBL-ER51 calcium signalling IC50 (nM), Cynomolgus IgE, geomean: 0.253 nM
[2]
  Kd: 7.2 nM

B16: Antibody 28 scFv (scFv, V domains shown, not shown: small tags and cut ends)
VH: QVQLVQSGAEVKKPGATVKLSCKVYGYIFTDYNIYWVRQAPGKGLEWMGLIDPDNGETFYAEKFQGRATMTADTSSDRAYMELTSLTFEDTATYYCATVMGKWIKGGYDYWGRGTLVTVSS
VL: QSVLTQPPSVSGAPGQRVTISCTGSSSNIGAGYDVHWYQQLPGTAPKLLIYDNFNRPSGVPDRFSGSKSGTSASLAIIGLQTEDEADYYCQSYDSSSLHSPFGTGTKLTVL
notes: Purified scFv
[4]
  IC50: 7 nM

B17: Antibody 1 IgG (antibody, V domains shown)
VH: QVQLVQSGAEVKKPGATVKLSCKVYGYIFTDYNIYWVRQAPGKGLEWMGLIDPDNGETFYAEKFQGRATMTADTSSDRAYMELTSLTFEDTATYYCATVLHRRLKGGYDYWGRGTLVTVSS
VL: QSVLTQPPSVSGAPGQRVTISCTGSSSNIGAGYDVHWYQQLPGTAPKLLIYDNFNRPSGVPDRFSGSKSGTSASLAIIGLQTEDEADYYCQSYDSSLSGSLFGTGTKLTVL
notes: Whole human IgG (section 1.4, IgG1); also called parent antibody
[5]
  IgE induced calcium signalling of RBL-ER51 cells, IC50: 34 nM
[6]
  binding result: binds

B18: Antibody 18 IgG (antibody, V domains shown)
VH: QVQLVQSGAEVKKPGATVKLSCKVYGYIFTDYNIYWVRQAPGKGLEWMGLIDPDNGETFYAEKFQGRATMTADTSSDRAYMELTSLTFEDTATYYCATVLLRSAKGGYDYWGRGTLVTVSS
VL: QSVLTQPPSVSGAPGQRVTISCTGSSSNIGAGYDVHWYQQLPGTAPKLLIYDNFNRPSGVPDRFSGSKSGTSASLAIIGLQTEDEADYYCQSYDSHLQLSPFGTGTKLTVL
[1]
  RBL-ER51 calcium signalling IC50 (nM), Cynomolgus IgE, geomean: 2.97 nM
